{
  "source": "paper PMC8975821",
  "about": "“TOX4 facilitates promoter-proximal pausing and C-terminal domain dephosphorylation of RNA polymerase II in human cells” (Communications Biology, 2022)",
  "binders": {"B1": {"name": "His-tagged PP1β (enzyme, UniProt P62140 1-327, looked up)", "chain": "MADGELNVDSLITRLLEVRGCRPGKIVQMTEAEVRGLCIKSREIFLSQPILLELEAPLKICGDIHGQYTDLLRLFEYGGFPPEANYLFLGDYVDRGKQSLETICLLLAYKIKYPENFFLLRGNHECASINRIYGFYDECKRRFNIKLWKTFTDCFNCLPIAAIVDEKIFCCHGGLSPDLQSMEQIRRIMRPTDVPDTGLLCDLLWSDPDKDVQGWGENDRGVSFTFGADVVSKFLNRHDLDLICRAHQVVEDGYEFFAKRQLVTLFSAPNYCGEFDNAGGMMSVDETLMCSFQILKPSEKKAKYQYGGLNSGRPVTPPRTANPPKKR", "notes": "PP1β, catalytic subunit of protein phosphatase 1 beta; cDNA cloned into pFASTBAC.1; also called His-PP1β; source: High Five cells infected with baculovirus, purified (HisPur Ni-NTA magnetic beads, imidazole elution)"}},
  "target": "T1, 3× Flag-tagged TOX4 (UniProt O94842 1-621)",
  "T1 construct": "TOX4, cDNA cloned into pFASTBAC.1; Also used as the parent (on) of the region row from the co-IP with TOX4 fragments, whose own constructs are not described; also called 3× Flag-TOX4; source: High Five cells infected with baculovirus, purified (anti-Flag M2 magnetic beads, eluted with 3× Flag peptide); also purified from High Five cells as the TOX4-PP1α complex",
  "T1 sequence (looked up)": "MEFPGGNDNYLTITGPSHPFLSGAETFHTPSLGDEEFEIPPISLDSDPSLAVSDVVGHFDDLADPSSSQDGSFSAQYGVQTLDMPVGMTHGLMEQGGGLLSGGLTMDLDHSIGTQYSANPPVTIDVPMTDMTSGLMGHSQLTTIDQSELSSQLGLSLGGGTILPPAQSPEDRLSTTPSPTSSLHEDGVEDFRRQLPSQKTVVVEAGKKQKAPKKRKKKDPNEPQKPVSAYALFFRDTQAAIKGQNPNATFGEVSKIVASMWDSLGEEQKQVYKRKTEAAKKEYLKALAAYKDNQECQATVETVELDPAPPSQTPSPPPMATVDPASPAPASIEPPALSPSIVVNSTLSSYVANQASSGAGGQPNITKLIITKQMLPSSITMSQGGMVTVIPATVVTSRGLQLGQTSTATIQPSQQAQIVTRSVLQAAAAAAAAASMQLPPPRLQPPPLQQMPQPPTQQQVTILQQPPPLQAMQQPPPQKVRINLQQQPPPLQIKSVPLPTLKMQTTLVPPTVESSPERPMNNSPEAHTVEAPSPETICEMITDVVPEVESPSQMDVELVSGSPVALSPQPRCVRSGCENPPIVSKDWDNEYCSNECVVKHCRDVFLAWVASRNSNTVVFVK",
  "assay": "co-IP; in vitro binding assay of individually purified TOX4 and PP1α, β or γ; PP1 co-immunoprecipitated with TOX4; Western blot, quantified by ImageJ",
  "settings": "both partners purified",
  "data": [
    {"binder": "B1", "values": [
      {"measurement": "binding result", "value": "binds"}
    ]}
  ]
}
